Measurements published in patent US20210403601A1 (FAPON BIOTECH, published 2021).
Numbering of substitutions follows the chain as printed. Read-outs that look alike come from different tables or passages of the source. Each block holds one binder with its values, some of them ahead of it.

Legend:
Taq DNA polymerase [1] = molecular target: T1, Taq DNA polymerase (Thermus aquaticus, UniProt P19821 1-832); assay: AMC sensor, antibody immobilised
T1 construct: also called Taq enzyme; Taq DNA enzyme
T1 sequence (P19821 whole entry): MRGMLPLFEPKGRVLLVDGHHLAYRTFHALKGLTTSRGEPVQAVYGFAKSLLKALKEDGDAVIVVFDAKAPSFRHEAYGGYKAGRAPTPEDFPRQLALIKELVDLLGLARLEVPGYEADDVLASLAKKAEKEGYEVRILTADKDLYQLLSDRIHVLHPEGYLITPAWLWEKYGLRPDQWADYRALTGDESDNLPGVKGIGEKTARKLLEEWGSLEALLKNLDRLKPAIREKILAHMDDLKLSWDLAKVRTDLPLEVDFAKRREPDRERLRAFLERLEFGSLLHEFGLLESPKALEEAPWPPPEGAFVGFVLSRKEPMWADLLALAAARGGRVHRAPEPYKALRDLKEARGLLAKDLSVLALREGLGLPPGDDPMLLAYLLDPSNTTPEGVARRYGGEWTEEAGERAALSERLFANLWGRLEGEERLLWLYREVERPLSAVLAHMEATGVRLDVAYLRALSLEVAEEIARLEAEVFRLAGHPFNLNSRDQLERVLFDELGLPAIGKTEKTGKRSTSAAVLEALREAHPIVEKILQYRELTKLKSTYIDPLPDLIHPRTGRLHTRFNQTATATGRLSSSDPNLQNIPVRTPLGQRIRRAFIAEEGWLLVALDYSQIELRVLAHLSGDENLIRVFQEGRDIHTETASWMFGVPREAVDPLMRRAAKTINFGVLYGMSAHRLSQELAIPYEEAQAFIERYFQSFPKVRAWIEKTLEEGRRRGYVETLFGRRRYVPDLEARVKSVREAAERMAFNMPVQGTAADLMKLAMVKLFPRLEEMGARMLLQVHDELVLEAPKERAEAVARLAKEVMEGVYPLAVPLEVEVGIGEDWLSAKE

Taq DNA polymerase [2] = molecular target: T1, Taq DNA polymerase; assay: ELISA on coated Taq, antibody 0.46 ng/ml
Procedure: (§1) The antibody activity was detected after mutation. Taq DNA enzyme was diluted with coating solution to the specified concentration, 100 μL per well overnight at 4° C.; which was washed twice with washing solution and patted dry on the next day; with addition of blocking solution (20% BSA+80% PBS), 120 μL per well at 37° C. for 1 h and patted dry; added the diluted Taq monoclonal antibodies, 100 μL/well at 37° C. for 30 min (partial supernatant for 1 h); washed 5 times with washing solution and patted dry; added goat anti-mouse IgG-HRP at 100 μL per well at 37° C. for 30 min; washed 5 times with washing solution and patted dry; added color developing solution A (50 μL/well), added color developing solution B (50 μL/well) for 10 min; added stop solution, 50 μL/well; followed by reading the OD value at 450 nm (reference 630 nm) on the microplate reader.

Taq DNA polymerase [3] = molecular target: T1, Taq DNA polymerase; assay: ELISA on coated Taq, antibody 1.37 ng/ml
Procedure: as §1

Taq DNA polymerase [4] = molecular target: T1, Taq DNA polymerase; assay: ELISA on coated Taq, antibody 4.12 ng/ml
Procedure: as §1

Taq DNA polymerase [5] = molecular target: T1, Taq DNA polymerase; assay: ELISA on coated Taq, antibody 12.35 ng/ml
Procedure: as §1

Taq DNA polymerase [6] = molecular target: T1, Taq DNA polymerase; assay: ELISA on coated Taq, antibody 37.04 ng/ml
Procedure: as §1

Taq DNA polymerase [7] = molecular target: T1, Taq DNA polymerase; assay: ELISA on coated Taq, antibody 0 ng/ml (blank)
Procedure: as §1

Taq DNA polymerase [8] = molecular target: T1, Taq DNA polymerase; assay: AMC sensor, antibody immobilised; remark: listed apart in the source
Taq DNA polymerase [9] = molecular target: T1, Taq DNA polymerase; assay: AMC sensor, antibody immobilised; remark: listed apart in the source

B2: WT 1-4 (antibody, V domains shown)
VH: QVQLQQPGAELVKPGASVRLSCQTSVNTFSTYYLYWVKQRPGEGLEWIGGINPTSGGPVFDEKFKSKATLTVDTSSSTAYMQLSSLTSVDSAVYYCTRSVVRRGYYPDYWGQGTALTVSS
VL: DIQMTQTTSSLSASLGDRVTISCRGSQDIQNYINWYQQKPDGTIKLLIYFTSRLHSGVPSRFSGSGSGTDYSLTIANLEQEDIATYFCQQDDTVPITWGAGTKVELKR
notes: WT background; CDRs built
Kd (Taq DNA polymerase [8]): 4.1 nM
koff (Taq DNA polymerase [8]): 0.000362 s⁻¹
kon (Taq DNA polymerase [8]): 88400 M⁻¹ s⁻¹

B4: Mutation 1-7 (antibody, V domains shown)
VH: QVQLQQPGAELVKPGASVRLSCQTSVDTFTTYYIYWVKQRPGEGLEWIGGINPTSNPVFNEKFKSKATLTVDTSSSTAYMQLSSLTSVDSAVYYCTRSLVRRGYYFDYWGQGTALTVSS
VL: B2 VL with G25A, Q30N, I33V, F50Y, H55N, V94L, W98F
notes: Mutation 1 background; CDRs built
Kd (Taq DNA polymerase [9]): 0.599 nM
koff (Taq DNA polymerase [9]): 2.45e-05 s⁻¹
kon (Taq DNA polymerase [9]): 41000 M⁻¹ s⁻¹

B5: Mutation 1-8 (antibody, V domains shown)
VH: B4 VH with D27E, T30S, I51L, V100I
VL: B2 VL with G25A, I33L, F50Y, H55N, V58L, V94L, I96L, W98F
notes: as for B4
Kd (Taq DNA polymerase [9]): 0.0343 nM
koff (Taq DNA polymerase [9]): 1.64e-06 s⁻¹
kon (Taq DNA polymerase [9]): 47600 M⁻¹ s⁻¹

B6: Mutation 1-59 (antibody, V domains shown)
VH: B4 VH with D27N, T30S, I51L, L99V, V100I
VL: B2 VL with G25A, Q30N, F50Y, H55Q, V58L, I96L, W98F
notes: as for B4
Kd (Taq DNA polymerase [9]): 0.0507 nM
koff (Taq DNA polymerase [9]): 3.06e-06 s⁻¹
kon (Taq DNA polymerase [9]): 60400 M⁻¹ s⁻¹

B8: Mutation 1-3 (antibody, V domains shown)
VH: B2 VH with N27E, S30T, L34I, I51V, D61N, V101L, P107F
VL: B2 VL with G25A, Q30N, I33L, F50Y, V58I, I96V, W98F
notes: as for B4
Kd (Taq DNA polymerase [9]): 0.367 nM
koff (Taq DNA polymerase [9]): 1.54e-05 s⁻¹
kon (Taq DNA polymerase [9]): 42000 M⁻¹ s⁻¹

B9: Mutation 1-14 (antibody, V domains shown)
VH: B4 VH with D27E, T30S, I51L, L99V, V100I
VL: B2 VL with G25A, I33L, F50Y, V58L, I96L, W98F
notes: as for B4
Kd (Taq DNA polymerase [9]): 0.229 nM
koff (Taq DNA polymerase [9]): 1.92e-05 s⁻¹
kon (Taq DNA polymerase [9]): 84100 M⁻¹ s⁻¹

B10: Mutation 1-13 (antibody, V domains shown)
VH: B4 VH with L99V
VL: B2 VL with G25A, Q30N, I33V, F50Y, W98F
notes: as for B4
Kd (Taq DNA polymerase [9]): 0.407 nM
koff (Taq DNA polymerase [9]): 2.52e-05 s⁻¹
kon (Taq DNA polymerase [9]): 61700 M⁻¹ s⁻¹

B12: WT 1-5 (antibody, V domains shown)
VH: B2 VH with S30T, I51L, V101I
VL: B2 VL with Q30N, V58L, I96L
notes: WT background; CDRs built
Kd (Taq DNA polymerase [8]): 5.13 nM
koff (Taq DNA polymerase [8]): 0.000314 s⁻¹
kon (Taq DNA polymerase [8]): 61200 M⁻¹ s⁻¹

B13: WT 1-9 (antibody, V domains shown)
VH: B2 VH with N27E, S30T, I51V, V100I, V101L
VL: B2 VL with Q30N, I33L, H55Q, V58I, V94I, I96V
notes: WT background; CDRs built
Kd (Taq DNA polymerase [8]): 8.57 nM
koff (Taq DNA polymerase [8]): 0.000433 s⁻¹
kon (Taq DNA polymerase [8]): 50500 M⁻¹ s⁻¹

B15: WT 1-6 (antibody, V domains shown)
VH: B4 VH with T30S, I34L, I51V, N60D, V100L, F106P
VL: B2 VL with I33V, H55N, V58I, V94L, I96V
notes: WT background; CDRs built
Kd (Taq DNA polymerase [8]): 6.65 nM
koff (Taq DNA polymerase [8]): 0.000506 s⁻¹
kon (Taq DNA polymerase [8]): 76100 M⁻¹ s⁻¹

B17: WT 1-1 (antibody, V domains shown)
VH: B4 VH with I34L, N60D, L99I, F106P
VL: B2 VL with Q30N, I33V, H55Q, V94I
notes: WT background; CDRs built
Kd (Taq DNA polymerase [8]): 4.65 nM
koff (Taq DNA polymerase [8]): 0.000273 s⁻¹
kon (Taq DNA polymerase [8]): 58800 M⁻¹ s⁻¹

B19: Mutation 4 (antibody)
heavy: QVQLQQPGAELVKPGASVRLSCQTSVDTFSTYYWYWVKQRPGEGLEWIGGVNPTSNPVFKEKFKSKATLTVDTSSSTAYMQLSSLTSVDSAVYYCTRSILRRGYYEDYWGQGTALTVSSAKTTPPSVYPLAPGSAAQTNSMVTLGCLVKGYFPEPVTVTWNSGSLSSGVHTFPAVLQSDLYTLSSSVTVPSSTWPSETVTCNVAHPASSTKVDKKIVPRDCGCKPCICTVPEVSSVFIFPPKPKDVLTITLTPKVTCVVVDISKDDPEVQFSWFVDDVEVHTAQTQPREEQFNSTFRSVSELPIMHQDWLNGKEFKCRVNSAAFPAPIEKTISKTKGRPKAPQVYTIPPPKEQMAKDKVSLTCMITDFFPEDITVEWQWNGQPAENYKNTQPIMDTDGSYFVYSKLNVQKSNWEAGNTFTCSVLHEGLHNHHTEKSLSHSPGK
light: DIQMTQTTSSLSASLGDRVTISCRLSQDIQNYVNWYQQKPDGTIKLLIYSTSRLQSGIPSRFSGSGSGTDYSLTIANLEQEDIATYFCQQDDTIPVTEGAGTKVELKRADAAPTVSIFPPSSEQLTSGGASVVCFLNNFYPKDINVKWKIDGSERQNGVLNSWTDQDSKDSTYSMSSTLTLTKDEYERHNSYTCEATHKTSTSPIVKSFNRNEC
OD 450 nm (Taq DNA polymerase [3]): 0.057 OD
OD 450 nm (Taq DNA polymerase [4]): 0.354 OD
OD 450 nm (Taq DNA polymerase [5]): 0.679 OD
OD 450 nm (Taq DNA polymerase [6]): 1.38 OD

B22: WT 1-7 (antibody, V domains shown)
VH: B4 VH with I34L, N60D, F106P
VL: B2 VL with Q30N, I33V, H55N, V94L
notes: WT background; CDRs built
Kd (Taq DNA polymerase [8]): 3.42 nM
koff (Taq DNA polymerase [8]): 0.000296 s⁻¹
kon (Taq DNA polymerase [8]): 86700 M⁻¹ s⁻¹

The remaining lines, values ahead:

Kd (Taq DNA polymerase [1]): 0.99 nM
koff (Taq DNA polymerase [1]): 5.87e-05 s⁻¹
kon (Taq DNA polymerase [1]): 59200 M⁻¹ s⁻¹
OD 450 nm (Taq DNA polymerase [2]): 0.059 OD
OD 450 nm (Taq DNA polymerase [3]): 0.514 OD
OD 450 nm (Taq DNA polymerase [4]): 1 OD
OD 450 nm (Taq DNA polymerase [5]): 1.84 OD
OD 450 nm (Taq DNA polymerase [6]): 2.05 OD
OD 450 nm (Taq DNA polymerase [7]): 0.05 OD
B1: Mutation 2 (antibody, V domains shown)
VH: B4 VH with T30S, I51V, L99I, V100L, F106P
VL: B2 VL with I33V, H55Q, V58I, V94I, I96V, W98F

Kd (Taq DNA polymerase [9]): 0.12 nM
koff (Taq DNA polymerase [9]): 5.72e-06 s⁻¹
kon (Taq DNA polymerase [9]): 47600 M⁻¹ s⁻¹
B3: Mutation 1-15 (antibody, V domains shown)
VH: B2 VH with N27E, S30T, L34I, I51V, D61N, V100L, V101L, P107F
VL: B2 VL with G25A, Q30N, I33L, F50Y, H55N, V58I, V94L, I96V, W98F
notes: as for B4

Kd (Taq DNA polymerase [9]): 0.613 nM
koff (Taq DNA polymerase [9]): 3.06e-05 s⁻¹
kon (Taq DNA polymerase [9]): 50000 M⁻¹ s⁻¹
B7: Mutation 1-11 (antibody, V domains shown)
VH: B2 VH with S30T, L34I, I51L, D61N, V100I, V101I, P107F
VL: B2 VL with G25A, Q30N, F50Y, H55Q, V58L, V94I, I96L, W98F
notes: as for B4

Kd (Taq DNA polymerase [9]): 0.926 nM
koff (Taq DNA polymerase [9]): 7.28e-05 s⁻¹
kon (Taq DNA polymerase [9]): 78600 M⁻¹ s⁻¹
B11: Mutation 1-9 (antibody, V domains shown)
VH: B2 VH with N27E, S30T, L34I, I51V, D61N, V100I, V101L, P107F
VL: B2 VL with G25A, Q30N, I33L, F50Y, H55Q, V58I, V94I, I96V, W98F
notes: as for B4

Kd (Taq DNA polymerase [1]): 20.7 nM
koff (Taq DNA polymerase [1]): 0.00135 s⁻¹
kon (Taq DNA polymerase [1]): 65500 M⁻¹ s⁻¹
OD 450 nm (Taq DNA polymerase [3]): 0.067 OD
OD 450 nm (Taq DNA polymerase [4]): 0.45 OD
OD 450 nm (Taq DNA polymerase [5]): 0.874 OD
OD 450 nm (Taq DNA polymerase [6]): 1.78 OD
B14: Mutation 3 (antibody)
heavy: B19 heavy with W34A, K60D, E106Q
light: B19 light with L25G, S50Y, E98Y

Kd (Taq DNA polymerase [8]): 3.02 nM
koff (Taq DNA polymerase [8]): 9.85e-05 s⁻¹
kon (Taq DNA polymerase [8]): 32600 M⁻¹ s⁻¹
B16: WT 1-8 (antibody, V domains shown)
VH: B4 VH with D27E, T30S, I34L, I51L, N60D, V100I, F106P
VL: B2 VL with I33L, H55N, V58L, V94L, I96L
notes: WT background; CDRs built

Kd (Taq DNA polymerase [8]): 3.41 nM
koff (Taq DNA polymerase [8]): 0.000166 s⁻¹
kon (Taq DNA polymerase [8]): 48500 M⁻¹ s⁻¹
B18: WT 1-2 (antibody, V domains shown)
VH: B4 VH with D27E, T30S, I34L, I51L, N60D, L99I, V100I, F106P
VL: B2 VL with I33L, H55Q, V58L, V94I, I96L
notes: WT background; CDRs built

Kd (Taq DNA polymerase [8]): 2.3 nM
koff (Taq DNA polymerase [8]): 0.00011 s⁻¹
kon (Taq DNA polymerase [8]): 48000 M⁻¹ s⁻¹
B20: WT 1-3 (antibody, V domains shown)
VH: B2 VH with N27E, S30T, I51V, V101L
VL: B2 VL with Q30N, I33L, V58I, I96V
notes: WT background; CDRs built

OD 450 nm (Taq DNA polymerase [3]): 0.054 OD
OD 450 nm (Taq DNA polymerase [4]): 0.362 OD
OD 450 nm (Taq DNA polymerase [5]): 0.701 OD
OD 450 nm (Taq DNA polymerase [6]): 1.41 OD
B21: Mutation 5 (antibody)
heavy: B19 heavy with W34S, K60Y, E106K
light: B19 light with L25I, S50P, E98R
